US20120324600A1, “CONSTITUTIVE SYNTHETIC PLANT PROMOTERS AND METHODS OF USE” (SYNGENTA PARTICIPATIONS AG, priority 2010, published 2012)

B1: SEQ ID NO: 3: synthetic plant promoter, subelements eFMV, e35S, pr35SCMP, eTMV; 625 bp (nucleic acid)
DNA: AGCTGCTTGTGGGGACCAGACAAAAAAGGAATGGTGCAGAATTGTTAGGCGCACCTACCAAAAGCATCTTTGCCTTTATTGCAAAGATAAAGCAGATTCCTCTAGTACAAGTGGGGAACAAAATAACGTGGAAAAGAGCTGTCCTGACAGCCCACTCACTAATGCGTATGACGAACGCAGTGACGACCACAAAACTCGAGACTTTTCAACAAAGGGTAATATCCGGAAACCTCCTCGGATTCCATTGCCCAGCTATCTGTCACTTTATTGTGAAGATAGTGGAAAAGGAAGGTGGCTCCTACAAATGCCATCATTGCGATAAAGGAAAGGCTATCGTTGAAGATGCCTCTGCCGACAGTGGTCCCAAAGATGGACCCCCACCCACGAGGAGCATCGTGGAAAAAGAAGACGTTCCAACCACGTCTTCAAAGCAAGTGGATTGATGTGATATCTCCACTGACGTAAGGGATGACGAACAATCCCACTATCCTTCTGCAGGTCGACTCTAGAGGATCCTATAAATAGGAAGTTCATTTCATTTGGAGAGGAAACCTCGAGTATTTTTACAACAATTACCAACAACAACAAACAACAAACAACATTACAATTACTATTTACAATTACA
modifications: synthetic plant promoter
notes: synthetic plant promoter, subelements eFMV, e35S, pr35SCMP, eTMV; 625 bp
B2: SEQ ID NO: 5: synthetic plant promoter, subelements eFMV, e35S, iUBQ3, pr35SCMP, eTMV; 1017 bp (nucleic acid)
DNA: AGCTGCTTGTGGGGACCAGACAAAAAAGGAATGGTGCAGAATTGTTAGGCGCACCTACCAAAAGCATCTTTGCCTTTATTGCAAAGATAAAGCAGATTCCTCTAGTACAAGTGGGGAACAAAATAACGTGGAAAAGAGCTGTCCTGACAGCCCACTCACTAATGCGTATGACGAACGCAGTGACGACCACAAAACTCGAGACTTTTCAACAAAGGGTAATATCCGGAAACCTCCTCGGATTCCATTGCCCAGCTATCTGTCACTTTATTGTGAAGATAGTGGAAAAGGAAGGTGGCTCCTACAAATGCCATCATTGCGATAAAGGAAAGGCTATCGTTGAAGATGCCTCTGCCGACAGTGGTCCCAAAGATGGACCCCCACCCACGAGGAGCATCGTGGAAAAAGAAGACGTTCCAACCACGTCTTCAAAGCAAGTGGATTGATGTGATATCTCCACTGACGTAAGGGATGACGAACAATCCCACTATCCTTCTGCAGGTCGACTCTAGAGGATCTTATAAATAGGTATATTTTCTGATTCTTTTTGTTTTTGATTCGTATCTGATCTCCAATTTTTGTTATGTGGATTATTGAATCTTTTGTATAAATTGCTTTTGACAATATTGTTCGTTTCGTCAATCCAGCTTCTAAATTTTGTCCTGATTACTAAGATATCGATTCGTAGTGTTTACATCTGTGTAATTTCTTGCTTGATTGTGAAATTAGGATTTTCAAGGACGATCTATTCAATTTTTGTGTTTTCTTTGTTCGATTCTCTCTGTTTTAGGTTTCTTATGTTTAGATCCGTTTCTCTTTGGTGTTGTTTTGATTTCTCTTACGGCTTTTGATTTGGTATATGTTCGCTGATTGGTTTCTACTTGTTCTATTGTTTTATTTCAGGTGGATCCTATAAATAGGAAGTTCATTTCATTTGGAGAGGAAACCTCGAGTATTTTTACAACAATTACCAACAACAACAAACAACAAACAACATTACAATTACTATTTACAATTACA
modifications: synthetic plant promoter
notes: synthetic plant promoter, subelements eFMV, e35S, iUBQ3, pr35SCMP, eTMV; 1017 bp

Columns and labels:
Format in all cases: in vivo
[1] = tested on: oat HPPD protein expression; experiment: oat HPPD protein expression by ELISA in T1 transgenic soybean events; conditions: inferred from ELISA and mesotrione tolerance of HOM vs HET siblings
Description: To express a synthetic oat (Avena sativa) 4-hydroxyphenylpyruvate dioxygenase (cAvHPPD) in stably transformed soybean, viral transcriptional and translational enhancers, and a minimal promoter were created by PCR or direct DNA synthesis and combined by standard DNA restriction digestion and ligation reactions. A synthetic plant promoter comprising defined components eFMV (SEQ ID NO: 1), eTMV (SEQ ID NO: 2), the Cauliflower Mosaic Virus 35S enhancer region (e35S) and a minimal promoter (pr35SCMP: Cestrum Yellow Leaf Curl virus TATA-box motif; no CAAT 35S-proximal promoter sequence) were combined to create SEQ ID NO: 3. Subsequently, SEQ ID NO: 3 was modified by digestion with a DNA restriction enzyme XhoI to remove defined components e35S, pr35SCMP (including the TATA-box motif) followed by a standard ligation reaction to create SEQ ID NO: 4. […] One skilled in the art would readily recognize other subelements which would be suitable to use.
The plasmids containing the synthetic plant promoter expression cassettes were transformed into soybean using Agrobacterium tumefaciens. […] Expression of cAvHPPD of surviving T0 plants was quantified by ELISA (Engvall E, Perlman P (1971). “Enzyme-linked immunosorbent assay (ELISA). Quantitative assay of immunoglobulin G”. Immunochemistry 8(9):871-874).
(§1) The first generation transgenic soybean events (T1) harboring SEQ ID NO: 3, SEQ ID NO: 4, SEQ ID NO: 5, SEQ ID NO: 6, or SEQ ID NO: 7 were characterized for segregation analysis, oat HPPD protein expression and tolerance to mesotrione herbicide spray. The green leaf tissues from the first trifoliate of five independent events were sampled to determine the segregation ratios (homozygous, heterozygous or null) of the individual seedlings as determined by zygosity Taqman® assays and oat HPPD protein expression by ELISA. At the V2 stage, the seedlings were sprayed with the HPPD inhibiting herbicide mesotrione and tolerance rating determined approximately 10 days post-application.

maize = experiment: expression of a heterologous sequence in maize
Description: A similar strategy for building synthetic plant promoters for use in maize was implemented.

[2] = tested on: transgenic soybean events; experiment: tolerance to mesotrione herbicide spray of T1 transgenic soybean seedlings; conditions: sprayed at V2 stage, rated approximately 10 days post-application
Description: as §1

| Molecule | transgene silencing in HOM plants [1] | promotion of expression of a heterologous sequence in maize (maize) | tolerance to mesotrione herbicide spray [2] |
| --- | --- | --- | --- |
| B1 | indicative of transgene silencing | successfully used to promote the expression of a heterologous sequence in maize | significant initial damage to the homozygous (HOM) compared to the heterozygous (HET) siblings |
| B2 | relieve transgene silencing | – | improved tolerance to the HPPD inhibitor herbicide mesotrione |
